Data: the supplement of paper PMC10567573

B1: CSNK1G1 (parent)
chain: GSLPWQGLKADTLKERYQKIGDTK

Variants of: B1
Assay: protein stability index of a GFP-peptide fusion (GPS, HEK-293T) (PSI 1-6); higher = more stable
Settings: c terminus: a fixed tail appended
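Note: lentivirally expressed fusions sorted by FACS into six bins by GFP to DsRed ratio, PSI derived from sequencing read proportions per bin multiplied by bin number.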

Q: Which protein stability index does the source give for GDLPWQGLKADTLKERYQKIGDTK [S2D] here?
A: 4.53

Q: For GELPWQGLKADTLKERYQKIGDTK [S2E], which protein stability index is on record?
A: 4.6

Q: With GFLPWQGLKADTLKERYQKIGDTK [S2F] as the variant, how does the protein stability index read?
A: 3.73

Q: With GGLPWQGLKADTLKERYQKIGDTK [S2G] as the variant, how does the protein stability index read?
A: 3.69

Q: Which protein stability index does the source give for GHLPWQGLKADTLKERYQKIGDTK [S2H] here?
A: 3.16

Q: For GILPWQGLKADTLKERYQKIGDTK [S2I], which protein stability index is on record?
A: 3.47

Q: For GKLPWQGLKADTLKERYQKIGDTK [S2K], which protein stability index is on record?
A: 4.37

Q: For GLLPWQGLKADTLKERYQKIGDTK [S2L], which protein stability index is on record?
A: 4.17

Q: Which protein stability index does the source give for GMLPWQGLKADTLKERYQKIGDTK [S2M] here?
A: 4.07

Q: Which protein stability index does the source give for GNLPWQGLKADTLKERYQKIGDTK [S2N] here?
A: 4.11

Q: With GPLPWQGLKADTLKERYQKIGDTK [S2P] as the variant, how does the protein stability index read?
A: 3.95

Q: For GQLPWQGLKADTLKERYQKIGDTK [S2Q], which protein stability index is on record?
A: 4.57

Q: With GRLPWQGLKADTLKERYQKIGDTK [S2R] as the variant, how does the protein stability index read?
A: 3.83

Q: Which protein stability index does the source give for GTLPWQGLKADTLKERYQKIGDTK [S2T] here?
A: 4.21

Q: Which protein stability index does the source give for GVLPWQGLKADTLKERYQKIGDTK [S2V] here?
A: 3.35

Q: With GWLPWQGLKADTLKERYQKIGDTK [S2W] as the variant, how does the protein stability index read?
A: 3.04

Q: For GYLPWQGLKADTLKERYQKIGDTK [S2Y], which protein stability index is on record?
A: 4.01

Q: With GSAPWQGLKADTLKERYQKIGDTK [L3A] as the variant, how does the protein stability index read?
A: 4.38

Q: Which protein stability index does the source give for GSCPWQGLKADTLKERYQKIGDTK [L3C] here?
A: 4.31

Q: With GSDPWQGLKADTLKERYQKIGDTK [L3D] as the variant, how does the protein stability index read?
A: 4.2

Q: Which protein stability index does the source give for GSEPWQGLKADTLKERYQKIGDTK [L3E] here?
A: 4.18

Q: For GSFPWQGLKADTLKERYQKIGDTK [L3F], which protein stability index is on record?
A: 3.71

Q: With GSGPWQGLKADTLKERYQKIGDTK [L3G] as the variant, how does the protein stability index read?
A: 4.42

Q: With GSHPWQGLKADTLKERYQKIGDTK [L3H] as the variant, how does the protein stability index read?
A: 4.58

Q: With GSIPWQGLKADTLKERYQKIGDTK [L3I] as the variant, how does the protein stability index read?
A: 4.55

Q: For GSKPWQGLKADTLKERYQKIGDTK [L3K], which protein stability index is on record?
A: 4.12

Q: Which protein stability index does the source give for GSMPWQGLKADTLKERYQKIGDTK [L3M] here?
A: 4.54

Q: Which protein stability index does the source give for GSNPWQGLKADTLKERYQKIGDTK [L3N] here?
A: 4.09

Q: With GSPPWQGLKADTLKERYQKIGDTK [L3P] as the variant, how does the protein stability index read?
A: 3.88

Q: With GSQPWQGLKADTLKERYQKIGDTK [L3Q] as the variant, how does the protein stability index read?
A: 4.63

Q: With GSRPWQGLKADTLKERYQKIGDTK [L3R] as the variant, how does the protein stability index read?
A: 3.81

Q: For GSSPWQGLKADTLKERYQKIGDTK [L3S], which protein stability index is on record?
A: 4.2

Q: With GSTPWQGLKADTLKERYQKIGDTK [L3T] as the variant, how does the protein stability index read?
A: 4.09

Q: With GSVPWQGLKADTLKERYQKIGDTK [L3V] as the variant, how does the protein stability index read?
A: 4.37

Q: Which protein stability index does the source give for GSWPWQGLKADTLKERYQKIGDTK [L3W] here?
A: 3.41

Q: Which protein stability index does the source give for GSYPWQGLKADTLKERYQKIGDTK [L3Y] here?
A: 4.09

Q: With GSLAWQGLKADTLKERYQKIGDTK [P4A] as the variant, how does the protein stability index read?
A: 4.02

Q: With GSLCWQGLKADTLKERYQKIGDTK [P4C] as the variant, how does the protein stability index read?
A: 3.42

Q: Which protein stability index does the source give for GSLDWQGLKADTLKERYQKIGDTK [P4D] here?
A: 4.37

Q: With GSLEWQGLKADTLKERYQKIGDTK [P4E] as the variant, how does the protein stability index read?
A: 4.46

Q: With GSLFWQGLKADTLKERYQKIGDTK [P4F] as the variant, how does the protein stability index read?
A: 2.84

Q: For GSLGWQGLKADTLKERYQKIGDTK [P4G], which protein stability index is on record?
A: 4.02

Q: Which protein stability index does the source give for GSLHWQGLKADTLKERYQKIGDTK [P4H] here?
A: 4.17

Q: Which protein stability index does the source give for GSLIWQGLKADTLKERYQKIGDTK [P4I] here?
A: 3.67

Q: With GSLKWQGLKADTLKERYQKIGDTK [P4K] as the variant, how does the protein stability index read?
A: 4.28

Q: Which protein stability index does the source give for GSLLWQGLKADTLKERYQKIGDTK [P4L] here?
A: 3.78

Q: For GSLMWQGLKADTLKERYQKIGDTK [P4M], which protein stability index is on record?
A: 4.55

Q: Which protein stability index does the source give for GSLNWQGLKADTLKERYQKIGDTK [P4N] here?
A: 3.95

Q: For GSLQWQGLKADTLKERYQKIGDTK [P4Q], which protein stability index is on record?
A: 4.3

Q: Which protein stability index does the source give for GSLRWQGLKADTLKERYQKIGDTK [P4R] here?
A: 4.37

Q: For GSLSWQGLKADTLKERYQKIGDTK [P4S], which protein stability index is on record?
A: 4.49

Q: Which protein stability index does the source give for GSLTWQGLKADTLKERYQKIGDTK [P4T] here?
A: 4.08

Q: For GSLVWQGLKADTLKERYQKIGDTK [P4V], which protein stability index is on record?
A: 4.09

Q: For GSLWWQGLKADTLKERYQKIGDTK [P4W], which protein stability index is on record?
A: 3.09

Q: With GSLYWQGLKADTLKERYQKIGDTK [P4Y] as the variant, how does the protein stability index read?
A: 3.73

Q: For GSLPAQGLKADTLKERYQKIGDTK [W5A], which protein stability index is on record?
A: 4.98

Q: With GSLPCQGLKADTLKERYQKIGDTK [W5C] as the variant, how does the protein stability index read?
A: 4.7

Q: With GSLPDQGLKADTLKERYQKIGDTK [W5D] as the variant, how does the protein stability index read?
A: 5.18

Q: For GSLPEQGLKADTLKERYQKIGDTK [W5E], which protein stability index is on record?
A: 5.42

Q: For GSLPFQGLKADTLKERYQKIGDTK [W5F], which protein stability index is on record?
A: 4.75

Q: Which protein stability index does the source give for GSLPGQGLKADTLKERYQKIGDTK [W5G] here?
A: 4.53

Q: With GSLPHQGLKADTLKERYQKIGDTK [W5H] as the variant, how does the protein stability index read?
A: 4.53

Q: For GSLPIQGLKADTLKERYQKIGDTK [W5I], which protein stability index is on record?
A: 3.99

Q: With GSLPKQGLKADTLKERYQKIGDTK [W5K] as the variant, how does the protein stability index read?
A: 4.74

Q: For GSLPLQGLKADTLKERYQKIGDTK [W5L], which protein stability index is on record?
A: 4.62

Q: With GSLPMQGLKADTLKERYQKIGDTK [W5M] as the variant, how does the protein stability index read?
A: 4.61

Q: With GSLPNQGLKADTLKERYQKIGDTK [W5N] as the variant, how does the protein stability index read?
A: 4.97

Q: For GSLPPQGLKADTLKERYQKIGDTK [W5P], which protein stability index is on record?
A: 4.62

Q: With GSLPQQGLKADTLKERYQKIGDTK [W5Q] as the variant, how does the protein stability index read?
A: 4.38

Q: With GSLPRQGLKADTLKERYQKIGDTK [W5R] as the variant, how does the protein stability index read?
A: 4.29

Q: With GSLPSQGLKADTLKERYQKIGDTK [W5S] as the variant, how does the protein stability index read?
A: 4.99

Q: Which protein stability index does the source give for GSLPTQGLKADTLKERYQKIGDTK [W5T] here?
A: 5.09

Q: Which protein stability index does the source give for GSLPVQGLKADTLKERYQKIGDTK [W5V] here?
A: 4.58

Q: Which protein stability index does the source give for GSLPYQGLKADTLKERYQKIGDTK [W5Y] here?
A: 4.43

Q: Which protein stability index does the source give for GSLPWAGLKADTLKERYQKIGDTK [Q6A] here?
A: 3.7

Q: Which protein stability index does the source give for GSLPWCGLKADTLKERYQKIGDTK [Q6C] here?
A: 3.4

Q: For GSLPWDGLKADTLKERYQKIGDTK [Q6D], which protein stability index is on record?
A: 4.48

Q: For GSLPWEGLKADTLKERYQKIGDTK [Q6E], which protein stability index is on record?
A: 4.32

Q: For GSLPWFGLKADTLKERYQKIGDTK [Q6F], which protein stability index is on record?
A: 3.25

Q: With GSLPWGGLKADTLKERYQKIGDTK [Q6G] as the variant, how does the protein stability index read?
A: 4.13

Q: For GSLPWHGLKADTLKERYQKIGDTK [Q6H], which protein stability index is on record?
A: 4.62

Q: For GSLPWIGLKADTLKERYQKIGDTK [Q6I], which protein stability index is on record?
A: 3.94

Q: Which protein stability index does the source give for GSLPWKGLKADTLKERYQKIGDTK [Q6K] here?
A: 4.13

Q: For GSLPWLGLKADTLKERYQKIGDTK [Q6L], which protein stability index is on record?
A: 3.77

Q: For GSLPWMGLKADTLKERYQKIGDTK [Q6M], which protein stability index is on record?
A: 4.07

Q: For GSLPWNGLKADTLKERYQKIGDTK [Q6N], which protein stability index is on record?
A: 3.92

Q: Which protein stability index does the source give for GSLPWPGLKADTLKERYQKIGDTK [Q6P] here?
A: 4.57

Q: Which protein stability index does the source give for GSLPWRGLKADTLKERYQKIGDTK [Q6R] here?
A: 3.96

Q: For GSLPWSGLKADTLKERYQKIGDTK [Q6S], which protein stability index is on record?
A: 3.98

Q: Which protein stability index does the source give for GSLPWTGLKADTLKERYQKIGDTK [Q6T] here?
A: 4.24

Q: With GSLPWVGLKADTLKERYQKIGDTK [Q6V] as the variant, how does the protein stability index read?
A: 4.33

Q: Which protein stability index does the source give for GSLPWWGLKADTLKERYQKIGDTK [Q6W] here?
A: 2.74

Q: Which protein stability index does the source give for GSLPWYGLKADTLKERYQKIGDTK [Q6Y] here?
A: 2.89

Q: For GSLPWQALKADTLKERYQKIGDTK [G7A], which protein stability index is on record?
A: 4.39
